Among the data in publication PMC10786891, “Massively parallel profiling of RNA-targeting CRISPR-Cas13d” are Kd values, retold here.

Sequences and labels used below:
T1: EsCas13d, nuclease-dead (Eubacterium siraeum, UniProt B0MS50, R295A;H300A;R849A;H854A)
T1 sequence: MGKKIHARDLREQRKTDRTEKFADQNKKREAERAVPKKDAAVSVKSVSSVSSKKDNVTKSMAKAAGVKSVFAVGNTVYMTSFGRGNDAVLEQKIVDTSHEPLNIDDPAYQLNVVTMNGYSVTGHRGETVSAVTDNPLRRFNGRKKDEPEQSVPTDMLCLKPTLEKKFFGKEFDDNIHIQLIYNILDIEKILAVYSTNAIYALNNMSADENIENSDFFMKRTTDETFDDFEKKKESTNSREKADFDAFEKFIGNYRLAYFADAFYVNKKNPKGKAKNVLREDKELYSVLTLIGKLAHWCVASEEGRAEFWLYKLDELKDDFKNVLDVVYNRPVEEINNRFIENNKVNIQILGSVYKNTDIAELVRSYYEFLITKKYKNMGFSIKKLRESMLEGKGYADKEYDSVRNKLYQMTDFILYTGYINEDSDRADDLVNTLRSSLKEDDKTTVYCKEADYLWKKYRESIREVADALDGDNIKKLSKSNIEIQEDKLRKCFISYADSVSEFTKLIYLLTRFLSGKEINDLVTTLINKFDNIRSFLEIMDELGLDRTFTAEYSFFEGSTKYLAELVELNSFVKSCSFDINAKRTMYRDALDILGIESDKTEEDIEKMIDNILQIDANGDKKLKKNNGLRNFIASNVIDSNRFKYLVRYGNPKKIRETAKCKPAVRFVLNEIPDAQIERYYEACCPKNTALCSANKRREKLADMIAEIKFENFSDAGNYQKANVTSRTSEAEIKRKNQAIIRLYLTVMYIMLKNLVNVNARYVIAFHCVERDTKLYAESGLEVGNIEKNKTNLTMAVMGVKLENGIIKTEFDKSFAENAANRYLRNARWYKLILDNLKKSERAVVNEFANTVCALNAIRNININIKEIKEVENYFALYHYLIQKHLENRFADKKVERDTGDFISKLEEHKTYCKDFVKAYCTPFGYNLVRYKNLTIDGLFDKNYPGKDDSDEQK

B1: target 2 MT 5'PFS ACU 3'PFS AUC (mixed)
RNA 1: CACCCGUGCAAAAUUGCAGGGGUCUAAAACCUUCUCCAAAUUGUUUCAUCCU
RNA 2: GGGAAUGGAUCCACAUCUACGAAUUCACUAGGAUGAAACAAUUUGGAGAAGAUCAGAUCGGAAGAGCACACGU
B2: target 2 MT 5'PFS CUG 3'PFS UAG (mixed)
RNA 1: B1 RNA 1
RNA 2: B1 RNA 2 with A27C, C28U, U29G, A52U, U53A, C54G
B3: target 2 MT 5'PFS UAA 3'PFS CUA (mixed)
RNA 1: B1 RNA 1
RNA 2: B1 RNA 2 with A27U, C28A, U29A, A52C, C54A
B4: target 2 MT 5'PFS AUU 3'PFS AUA (mixed)
RNA 1: B1 RNA 1
RNA 2: B1 RNA 2 with C28U, C54A
B5: target 2 MT 5'PFS ACU 3'PFS AUU (mixed)
RNA 1: B1 RNA 1
RNA 2: B1 RNA 2 with C54U
B6: target 2 MT 5'PFS AAC 3'PFS CCA (mixed)
RNA 1: B1 RNA 1
RNA 2: B1 RNA 2 with C28A, U29C, A52C, U53C, C54A
B7: target 2 MT 5'PFS UAU 3'PFS CAU (mixed)
RNA 1: B1 RNA 1
RNA 2: B1 RNA 2 with A27U, C28A, A52C, U53A, C54U
B8: target 2 MT 5'PFS UUG 3'PFS UUU (mixed)
RNA 1: B1 RNA 1
RNA 2: B1 RNA 2 with A27U, C28U, U29G, A52U, C54U
B9: target 2 MT 5'PFS AAC 3'PFS CCG (mixed)
RNA 1: B1 RNA 1
RNA 2: B1 RNA 2 with C28A, U29C, A52C, U53C, C54G
B10: target 2 MT 5'PFS AGC 3'PFS UUA (mixed)
RNA 1: B1 RNA 1
RNA 2: B1 RNA 2 with C28G, U29C, A52U, C54A
B11: target 2 MT 5'PFS AGC 3'PFS UUG (mixed)
RNA 1: B1 RNA 1
RNA 2: B1 RNA 2 with C28G, U29C, A52U, C54G
B12: target 2 MT 5'PFS UGC 3'PFS CAC (mixed)
RNA 1: B1 RNA 1
RNA 2: B1 RNA 2 with A27U, C28G, U29C, A52C, U53A
B13: target 2 MT 5'PFS UAA 3'PFS CUU (mixed)
RNA 1: B1 RNA 1
RNA 2: B1 RNA 2 with A27U, C28A, U29A, A52C, C54U
B14: target 2 MT 5'PFS CAU 3'PFS ACG (mixed)
RNA 1: B1 RNA 1
RNA 2: B1 RNA 2 with A27C, C28A, U53C, C54G
B15: target 2 MT 5'PFS UAA 3'PFS CUG (mixed)
RNA 1: B1 RNA 1
RNA 2: B1 RNA 2 with A27U, C28A, U29A, A52C, C54G
B16: target 2 MT 5'PFS GCU 3'PFS ACA (mixed)
RNA 1: B1 RNA 1
RNA 2: B1 RNA 2 with A27G, U53C, C54A
B17: target 2 MT 5'PFS AAA 3'PFS AAC (mixed)
RNA 1: B1 RNA 1
RNA 2: B1 RNA 2 with C28A, U29A, U53A
B18: target 2 MT 5'PFS AUA 3'PFS UCU (mixed)
RNA 1: B1 RNA 1
RNA 2: B1 RNA 2 with C28U, U29A, A52U, U53C, C54U
B19: target 2 MT 5'PFS GCA 3'PFS AGG (mixed)
RNA 1: B1 RNA 1
RNA 2: B1 RNA 2 with A27G, U29A, U53G, C54G
B20: target 2 MT 5'PFS AUU 3'PFS AUC (mixed)
RNA 1: B1 RNA 1
RNA 2: B1 RNA 2 with C28U
B21: target 2 MT 5'PFS ACU 3'PFS AUG (mixed)
RNA 1: B1 RNA 1
RNA 2: B1 RNA 2 with C54G
B22: target 2 MT 5'PFS UCU 3'PFS AUC (mixed)
RNA 1: B1 RNA 1
RNA 2: B1 RNA 2 with A27U
B23: target 2 MT 5'PFS GCA 3'PFS AGU (mixed)
RNA 1: B1 RNA 1
RNA 2: B1 RNA 2 with A27G, U29A, U53G, C54U
B24: target 2 MT 5'PFS CUG 3'PFS UAC (mixed)
RNA 1: B1 RNA 1
RNA 2: B1 RNA 2 with A27C, C28U, U29G, A52U, U53A
B25: target 2 MT 5'PFS UCU 3'PFS AUG (mixed)
RNA 1: B1 RNA 1
RNA 2: B1 RNA 2 with A27U, C54G
B26: target 2 MT 5'PFS GCU 3'PFS ACC (mixed)
RNA 1: B1 RNA 1
RNA 2: B1 RNA 2 with A27G, U53C
B27: target 2 MT 5'PFS GCU 3'PFS ACU (mixed)
RNA 1: B1 RNA 1
RNA 2: B1 RNA 2 with A27G, U53C, C54U
B28: target 2 MT 5'PFS AGG 3'PFS CUA (mixed)
RNA 1: B1 RNA 1
RNA 2: B1 RNA 2 with C28G, U29G, A52C, C54A
B29: target 2 MT 5'PFS GCU 3'PFS ACG (mixed)
RNA 1: B1 RNA 1
RNA 2: B1 RNA 2 with A27G, U53C, C54G
B30: target 1 C4U,A20C (mixed)
RNA 1: CACCCGUGCAAAAAUGCAGGGGUCUAAAACUGAGCGGAUAACCUCUCUAUGG
RNA 2: GGGAAUGGAUCCACAUCUACGAAUUCGUACCCUAGAGAGGUUAUCCGUUCACCGAGAUCGGAAGAGCACACGU
B31: target 1 G12U,A20U (mixed)
RNA 1: B30 RNA 1
RNA 2: B30 RNA 2 with C32U, G40U, U48C

Positions count from the first letter of the chain named. In names and notes the source's numbering stands.

This data set concerns the target T1, EsCas13d, nuclease-dead. Put plainly: crRNA (strand 1, pre-loaded); Mg2+; 40 mM Tris-HCl pH 7.5, 150 mM NaCl, 6 mM MgCl2, 1 mM DTT, 0.1% Tween-20, 0.2 mg/ml BSA; 25 C; 10 min per concentration, then washed. To be noted: tags: His6-TwinStrep-SUMO cleaved; N-terminal SNAP kept (SNAP-Surface 488); label: 3' end held by stalled T7 RNA polymerase.
The molecule B1 showed a Kd of 4.1 ± 0.4 nM. B2 returned a Kd of 3.1 ± 0.5 nM. For B3 the value was 4.6 ± 0.5 nM. In turn, B4 showed a Kd of 5.3 ± 0.4 nM.

For the molecule B5, the Kd is 4.4 ± 0.6 nM. For B6 the value was 13 ± 4 nM. Turning to B7, the Kd amounted to 24.1 ± 2.7 nM. Turning to B8, the Kd was 25.5 ± 3.3 nM. B9 gave a Kd of 5.9 ± 0.6 nM. Compared with the last molecule, the Kd is about 4.3-fold lower. The molecule B10 yielded a Kd of 10.9 ± 2.4 nM.

As to B11, the Kd was 10.6 ± 1.4 nM. For B12, the Kd was 18 ± 4 nM.

B13: the affinity, expressed as Kd, was 6.9 ± 1.5 nM. For B14 the value was 7.9 ± 2.5 nM. For B15 the value was 6.2 ± 1.1 nM; for B16, 15 ± 4 nM; for B17, 4.6 ± 0.7 nM. As to B18, the Kd was found to be 33 ± 15 nM. Compared with the last molecule, the Kd is about 7.2-fold higher. B19 returned a Kd of 13.1 ± 1.8 nM. In turn, B20 yielded a Kd of 9.5 ± 1 nM. The Kd values of the last two molecules are within 1.5-fold of each other. Then B21, with 4.9 ± 0.6 nM; and B22, with 7.3 ± 1 nM; and B23, with 28 ± 10 nM. For B24 the value was 2.76 ± 0.35 nM; for B25, 8.3 ± 1.5 nM. For B26 the value was roughly 30 nM. For B27, binding was put at a Kd of 23 ± 4 nM. Then B28, with 6.7 ± 1.1 nM; and B29, with 14.6 ± 1.4 nM; and B30, with roughly 90 nM.

Consider B31, for which binding was characterised by a dissociation constant (Kd) of 27.5 ± 2.3 nM.

What is called Kd is the constant that tells how readily two partners part at equilibrium.
